Measured values taken from patent publication US20080044360A1 (COLLAGEN MEDICAL, published 2008).
Bridge positions count the residues as written; N and C are the ends. Square brackets hold non-standard residues; d marks the D form. Ends that are not written are not given here. NMeA = CN[C@@H](C)C(=O)O; Sar = CNCC(=O)O

Columns and labels:
[1] = molecular target: T1, human collagen type I, acid soluble, extracted from placenta (Sigma C7774) (human, UniProt P02452 162-1218; P08123 80-1119); assay: dried collagen assay
T1 construct: tissue extract, gelled and dried in wells; also called dried human collagen; h-Collagen
T1 sequence (P02452 162-1218 limits assumed, chain 1 of 2): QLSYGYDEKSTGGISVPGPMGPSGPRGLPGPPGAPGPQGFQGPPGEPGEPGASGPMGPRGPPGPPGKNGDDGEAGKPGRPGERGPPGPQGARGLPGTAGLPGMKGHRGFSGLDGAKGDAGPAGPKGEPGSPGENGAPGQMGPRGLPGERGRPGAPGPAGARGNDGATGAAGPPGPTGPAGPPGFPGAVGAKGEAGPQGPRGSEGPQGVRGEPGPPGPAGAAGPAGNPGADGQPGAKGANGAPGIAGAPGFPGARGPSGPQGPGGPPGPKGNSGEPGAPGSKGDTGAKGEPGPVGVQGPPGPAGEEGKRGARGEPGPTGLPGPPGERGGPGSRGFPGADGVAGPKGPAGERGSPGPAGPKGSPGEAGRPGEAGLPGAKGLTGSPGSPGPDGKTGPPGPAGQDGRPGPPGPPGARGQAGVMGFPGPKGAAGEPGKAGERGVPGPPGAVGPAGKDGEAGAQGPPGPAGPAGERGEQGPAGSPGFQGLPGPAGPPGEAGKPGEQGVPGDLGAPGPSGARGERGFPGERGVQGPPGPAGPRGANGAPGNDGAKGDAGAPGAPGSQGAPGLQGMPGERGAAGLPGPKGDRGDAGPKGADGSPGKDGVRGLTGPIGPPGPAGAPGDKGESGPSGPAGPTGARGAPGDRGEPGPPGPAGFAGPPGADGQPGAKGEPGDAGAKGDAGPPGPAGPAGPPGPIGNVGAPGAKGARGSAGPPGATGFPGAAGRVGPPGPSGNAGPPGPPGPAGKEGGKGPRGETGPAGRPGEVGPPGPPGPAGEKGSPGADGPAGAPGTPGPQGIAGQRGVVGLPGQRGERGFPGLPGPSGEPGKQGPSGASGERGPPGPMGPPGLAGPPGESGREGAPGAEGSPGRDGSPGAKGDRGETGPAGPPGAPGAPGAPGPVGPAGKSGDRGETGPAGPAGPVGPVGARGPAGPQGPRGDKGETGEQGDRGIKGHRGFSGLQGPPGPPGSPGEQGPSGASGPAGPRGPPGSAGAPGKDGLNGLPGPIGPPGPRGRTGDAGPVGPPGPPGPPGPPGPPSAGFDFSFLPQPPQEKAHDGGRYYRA
T1 sequence (P08123 80-1119 limits assumed, chain 2 of 2): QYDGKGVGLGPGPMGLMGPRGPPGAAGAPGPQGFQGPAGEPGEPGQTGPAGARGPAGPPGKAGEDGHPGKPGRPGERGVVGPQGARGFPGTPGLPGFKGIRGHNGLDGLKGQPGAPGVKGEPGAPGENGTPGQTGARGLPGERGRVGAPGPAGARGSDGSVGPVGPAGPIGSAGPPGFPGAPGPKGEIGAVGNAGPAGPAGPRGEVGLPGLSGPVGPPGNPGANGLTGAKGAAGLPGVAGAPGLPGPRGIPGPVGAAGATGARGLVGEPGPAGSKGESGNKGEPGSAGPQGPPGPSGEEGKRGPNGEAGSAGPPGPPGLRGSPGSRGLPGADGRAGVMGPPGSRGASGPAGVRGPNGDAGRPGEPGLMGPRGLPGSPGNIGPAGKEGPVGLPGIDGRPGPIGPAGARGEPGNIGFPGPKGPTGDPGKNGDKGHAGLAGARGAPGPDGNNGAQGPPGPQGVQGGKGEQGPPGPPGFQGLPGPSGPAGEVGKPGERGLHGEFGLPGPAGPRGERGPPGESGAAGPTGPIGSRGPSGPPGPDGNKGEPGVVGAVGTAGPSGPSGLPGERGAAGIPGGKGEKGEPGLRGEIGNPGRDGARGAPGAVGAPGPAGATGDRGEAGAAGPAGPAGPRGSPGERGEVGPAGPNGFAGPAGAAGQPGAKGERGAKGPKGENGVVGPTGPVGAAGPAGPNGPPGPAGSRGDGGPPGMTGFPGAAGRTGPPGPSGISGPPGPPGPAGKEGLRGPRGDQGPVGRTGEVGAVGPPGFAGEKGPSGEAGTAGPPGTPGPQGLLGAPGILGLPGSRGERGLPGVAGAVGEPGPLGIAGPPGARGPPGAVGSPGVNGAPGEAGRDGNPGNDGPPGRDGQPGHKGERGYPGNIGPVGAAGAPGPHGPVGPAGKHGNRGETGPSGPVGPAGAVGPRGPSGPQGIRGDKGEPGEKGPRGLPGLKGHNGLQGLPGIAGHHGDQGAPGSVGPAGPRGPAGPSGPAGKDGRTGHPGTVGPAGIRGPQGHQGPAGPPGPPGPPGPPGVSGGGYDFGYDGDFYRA
Procedure: (§1) An additional 90 μL is reserved in a HPLC glass vial as a measure of the total concentration.

[2] = molecular target: T2, rat collagen, acid soluble, type I, rat tail (Upstate 08-115) (rat, UniProt P02454 152-1207; P02466 86-1125); assay: dried collagen assay
T2 construct: tissue extract, gelled and dried in wells; also called dried rat collagen
T2 sequence (P02454 152-1207, chain 1 of 2): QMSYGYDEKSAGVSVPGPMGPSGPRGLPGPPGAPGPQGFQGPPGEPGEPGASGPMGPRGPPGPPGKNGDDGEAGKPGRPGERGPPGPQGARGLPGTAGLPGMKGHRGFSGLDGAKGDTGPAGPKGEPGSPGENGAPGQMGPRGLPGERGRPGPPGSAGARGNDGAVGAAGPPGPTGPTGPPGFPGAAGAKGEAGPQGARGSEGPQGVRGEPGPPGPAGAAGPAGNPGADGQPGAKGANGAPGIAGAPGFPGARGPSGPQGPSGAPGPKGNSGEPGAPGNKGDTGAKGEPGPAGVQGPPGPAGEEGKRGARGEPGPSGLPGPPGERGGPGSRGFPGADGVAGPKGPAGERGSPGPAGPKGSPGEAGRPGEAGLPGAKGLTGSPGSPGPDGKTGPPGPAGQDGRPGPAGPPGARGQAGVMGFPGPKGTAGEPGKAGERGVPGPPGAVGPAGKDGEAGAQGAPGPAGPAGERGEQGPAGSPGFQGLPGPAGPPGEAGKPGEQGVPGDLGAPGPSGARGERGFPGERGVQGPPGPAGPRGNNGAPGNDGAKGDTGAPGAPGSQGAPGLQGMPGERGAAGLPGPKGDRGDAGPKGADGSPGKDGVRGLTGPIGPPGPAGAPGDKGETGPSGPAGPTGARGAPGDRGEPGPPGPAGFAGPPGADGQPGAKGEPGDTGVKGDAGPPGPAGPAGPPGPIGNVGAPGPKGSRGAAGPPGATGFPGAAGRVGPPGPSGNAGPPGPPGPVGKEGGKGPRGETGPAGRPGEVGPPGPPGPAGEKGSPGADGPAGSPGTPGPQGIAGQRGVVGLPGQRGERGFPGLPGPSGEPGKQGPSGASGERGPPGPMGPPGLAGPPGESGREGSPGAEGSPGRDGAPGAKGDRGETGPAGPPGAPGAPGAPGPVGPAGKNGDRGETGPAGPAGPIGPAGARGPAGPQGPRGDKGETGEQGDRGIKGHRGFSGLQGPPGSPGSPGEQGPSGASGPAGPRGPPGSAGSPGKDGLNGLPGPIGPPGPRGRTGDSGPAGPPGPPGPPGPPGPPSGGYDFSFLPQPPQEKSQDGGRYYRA
T2 sequence (P02466 86-1125, chain 2 of 2): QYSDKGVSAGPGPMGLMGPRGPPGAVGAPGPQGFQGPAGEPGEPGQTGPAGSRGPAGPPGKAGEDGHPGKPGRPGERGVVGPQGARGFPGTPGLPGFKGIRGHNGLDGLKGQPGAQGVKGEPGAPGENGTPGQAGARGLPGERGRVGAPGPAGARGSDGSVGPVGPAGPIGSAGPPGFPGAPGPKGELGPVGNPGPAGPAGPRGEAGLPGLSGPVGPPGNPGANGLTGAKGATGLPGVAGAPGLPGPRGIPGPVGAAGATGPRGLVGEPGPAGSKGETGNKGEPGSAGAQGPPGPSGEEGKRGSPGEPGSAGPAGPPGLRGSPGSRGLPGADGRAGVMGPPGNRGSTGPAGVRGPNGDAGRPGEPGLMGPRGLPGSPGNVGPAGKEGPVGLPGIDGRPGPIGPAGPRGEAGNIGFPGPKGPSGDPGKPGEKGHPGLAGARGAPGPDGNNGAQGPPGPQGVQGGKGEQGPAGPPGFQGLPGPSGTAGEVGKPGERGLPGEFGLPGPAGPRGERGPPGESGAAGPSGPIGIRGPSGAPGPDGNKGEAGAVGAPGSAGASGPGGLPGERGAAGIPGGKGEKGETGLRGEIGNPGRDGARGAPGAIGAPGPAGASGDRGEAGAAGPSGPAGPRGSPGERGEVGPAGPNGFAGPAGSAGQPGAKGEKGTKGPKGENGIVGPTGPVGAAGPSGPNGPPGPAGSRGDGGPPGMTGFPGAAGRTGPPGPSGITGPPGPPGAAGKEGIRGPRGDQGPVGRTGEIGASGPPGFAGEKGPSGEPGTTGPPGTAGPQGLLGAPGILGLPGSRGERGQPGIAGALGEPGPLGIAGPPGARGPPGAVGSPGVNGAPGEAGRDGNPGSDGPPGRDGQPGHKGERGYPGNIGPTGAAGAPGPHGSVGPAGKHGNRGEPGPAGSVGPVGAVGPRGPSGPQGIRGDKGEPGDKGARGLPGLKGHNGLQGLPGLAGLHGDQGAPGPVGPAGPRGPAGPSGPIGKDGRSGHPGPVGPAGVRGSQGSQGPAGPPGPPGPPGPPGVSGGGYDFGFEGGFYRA
Procedure: as §1

Row | % bound [1] | % bound [2] | Binder
1 | 45% |  | TWMCVDPPLWRCWVQ (disulfide 4-12 (inferred), cyclic, disulfide) [SEQ ID NO 4]
2 | 34% |  | TWACGWTTTGWDNCRWI (disulfide 4-14 (inferred), cyclic, disulfide) [SEQ ID NO 92]
3 | 1% |  | KWHCELDSHMEWSCSGH (disulfide 4-14 (inferred), cyclic, disulfide) [SEQ ID NO 89]
4 | 12% |  | SWNCHWRNQGWLCSGG (disulfide 4-13 (inferred), cyclic, disulfide) [SEQ ID NO 55]
5 | 1% |  | SWHCALVENSWQCSEA (disulfide 4-13 (inferred), cyclic, disulfide) [SEQ ID NO 73]
6 | 11% |  | SWNCHMIRNEWRCTGH (disulfide 4-13 (inferred), cyclic, disulfide) [SEQ ID NO 56]
7 | 10% |  | EWHCVLNDFRWTCGGD (disulfide 4-13 (inferred), cyclic, disulfide) [SEQ ID NO 60]
8 | 12% |  | GWQCQGTDSLDWKCLYM (disulfide 4-14 (inferred), cyclic, disulfide) [SEQ ID NO 77]
9 | 10% |  | GWVCMMRETDWNCSI (disulfide 4-13 (inferred), cyclic, disulfide) [SEQ ID NO 58]
10 | 8% |  | TWACDLDEYGGWQCYTG (disulfide 4-14 (inferred), cyclic, disulfide) [SEQ ID NO 78]
11 | 34% |  | TWACGWTTTGWDNCRWI (disulfide 4-14 (inferred), cyclic, disulfide) [SEQ ID NO 90]
12 | 28% |  | TWACGWTTAGWDNCRWI (disulfide 4-14 (inferred), cyclic, disulfide) [SEQ ID NO 91]
13 | 3% |  | FWRCALLDGHWQCTDH (disulfide 4-13 (inferred), cyclic, disulfide) [SEQ ID NO 70]
14 | 8% |  | TWICSHNDKGWTCGDQ (disulfide 4-13 (inferred), cyclic, disulfide) [SEQ ID NO 64]
15 | 15% |  | RWSCWLDENGWKCDGT (disulfide 4-13 (inferred), cyclic, disulfide) [SEQ ID NO 52]
16 | 9% | 23% | YHACYQ[NMeA]GCWIW (disulfide 4-9 (inferred), cyclic, disulfide; also called YHACYQA'GCWIW) [SEQ ID NO 105]
17 | 1% |  | FWTCMRDQVGEWHCGTE (disulfide 4-14 (inferred), cyclic, disulfide) [SEQ ID NO 88]
18 | 12% | 19% | YHACYQA[Sar]CWIW (disulfide 4-9 (inferred), cyclic, disulfide) [SEQ ID NO 104]
19 | 9% | 24% | YHACYQAGCWIY (disulfide 4-9 (inferred), cyclic, disulfide) [SEQ ID NO 106]
20 |  | 12% | YHACYQAGCYIY (disulfide 4-9 (inferred), cyclic, disulfide) [SEQ ID NO 108]
21 | 2% | 2% | YHACYQAGCAIW (disulfide 4-9 (inferred), cyclic, disulfide) [SEQ ID NO 136]
22 | 10% | 2% | YSACYQAGCYIY (disulfide 4-9 (inferred), cyclic, disulfide) [SEQ ID NO 110]
23 | 53% | 37% | YAACYQAGCWIW (disulfide 4-9 (inferred), cyclic, disulfide) [SEQ ID NO 132]
24 | 8% |  | FWTCELDFRQSWYCYDK (disulfide 4-14 (inferred), cyclic, disulfide) [SEQ ID NO 79]
25 |  | 1% | GQWTCSGDEYTAHCNYE (disulfide 5-14 (inferred); not fully specified (C-terminus), cyclic, disulfide) [SEQ ID NO 147]
26 | 11% |  | RWTCDLQRGDWQCSTI (disulfide 4-13 (inferred), cyclic, disulfide) [SEQ ID NO 57]

Row | % bound [1] | % bound [2] | Binder
27 | 1% |  | EWHCVFIQGDWLCNSG (disulfide 4-13 (inferred), cyclic, disulfide) [SEQ ID NO 72]
28 | 10% |  | ERNCVLNDFRWTCGGD (disulfide 4-13 (inferred), cyclic, disulfide) [SEQ ID NO 75]
29 | 12% |  | GWFCKLVDGNWECSTK (disulfide 4-13 (inferred), cyclic, disulfide) [SEQ ID NO 53]
30 | 3% |  | SWHCALMGSRWVCGQN (disulfide 4-13 (inferred), cyclic, disulfide) [SEQ ID NO 71]
31 | 3% |  | HWQCGEKMSFWSCELV (disulfide 4-13 (inferred), cyclic, disulfide) [SEQ ID NO 69]
32 | 10% |  | HWQCRLTDYGWNCDER (disulfide 4-13 (inferred), cyclic, disulfide) [SEQ ID NO 59]
33 | 9% |  | KWSCYMVDHQWYCREF (disulfide 4-13 (inferred), cyclic, disulfide) [SEQ ID NO 61]
34 | 0% | 24% | YHASYQAGSWIW (printed without cysteines (S for C)) [SEQ ID NO 111]
35 | 19% |  | AWFCSQKNRLWSCGET (disulfide 4-13 (inferred), cyclic, disulfide) [SEQ ID NO 49]
36 |  | 0% | QWTCSGDEYTW[dH]CNYE (disulfide 4-13 (inferred); not fully specified (N-terminus); printed as QWTCSGDEYTWhCNYE, cyclic, disulfide) [SEQ ID NO 174]
37 | 1% |  | HWTCDQAKGGAWSCSST (disulfide 4-14 (inferred), cyclic, disulfide) [SEQ ID NO 87]
38 | 9% |  | HWSCYLGDNGWNCHDR (disulfide 4-13 (inferred), cyclic, disulfide) [SEQ ID NO 62]
39 |  | 27% | YHACYQAG[dC]WIW (disulfide 4-9 (inferred); not fully specified (C-terminus); printed as YHACYQAGcWIW, cyclic, disulfide) [SEQ ID NO 159]
40 | 12% |  | MWNCTMTKSGWRCFEK (disulfide 4-13 (inferred), cyclic, disulfide) [SEQ ID NO 54]
41 | 2% |  | SWYCDWDDRKGWMCGSD (disulfide 4-14 (inferred), cyclic, disulfide) [SEQ ID NO 86]
42 | 21% | 37% | YSACYQAGCWIW (disulfide 4-9 (inferred), cyclic, disulfide) [SEQ ID NO 109]
43 | 7% | 12% | AHACYQAGCWIW (disulfide 4-9 (inferred), cyclic, disulfide) [SEQ ID NO 131]
44 | 2% | 1% | YHACYQAGCWIA (disulfide 4-9 (inferred), cyclic, disulfide) [SEQ ID NO 138]
45 | 72% | 88% | YHACYQAACWIW (disulfide 4-9 (inferred), cyclic, disulfide) [SEQ ID NO 135]
46 | 14% | 1% | YHACYAAGCWIW (disulfide 4-9 (inferred), cyclic, disulfide) [SEQ ID NO 134]
47 | 1% |  | FGACDIFPTFHTCPGV (disulfide 4-13 (inferred), cyclic, disulfide) [SEQ ID NO 76]
48 | 22% |  | AWSCWIVEGRWNCSDI (disulfide 4-13 (inferred), cyclic, disulfide) [SEQ ID NO 48]
49 | 8% |  | NWYCSQALDNWSCKLR (disulfide 4-13 (inferred), cyclic, disulfide) [SEQ ID NO 63]
50 |  | 0% | QWT[dC]SGDEYTWHCNYE (disulfide 4-13 (inferred); not fully specified (N-terminus, C-terminus); printed as QWTcSGDEYTWHCNYE, cyclic, disulfide) [SEQ ID NO 167]
51 | 18% |  | KWFCELMQDQWQCGSK (disulfide 4-13 (inferred), cyclic, disulfide) [SEQ ID NO 50]
52 | 18% |  | KWFCELMHDQWQCGSK (disulfide 4-13 (inferred), cyclic, disulfide) [SEQ ID NO 51]
